The text below walks through data of patent US20020068706A1 (GPC BIOTECH, published 2002).

One assay has as its target CDK2/cyclin A complex (UniProt P24941 1-298). As to the kind of experiment: cell-based or functional assay.
Another assay has as its target CDK2/cyclin E complex (UniProt P24941 1-298). As to the kind of experiment: cell-based or functional assay.
The target in assay [1] is T1, CDK4/cyclin D1 complex (UniProt P11802 1-303; P24385 1-295). As to the kind of experiment: cell-based or functional assay.
T1 sequence (P11802 whole entry, chain 1 of 2): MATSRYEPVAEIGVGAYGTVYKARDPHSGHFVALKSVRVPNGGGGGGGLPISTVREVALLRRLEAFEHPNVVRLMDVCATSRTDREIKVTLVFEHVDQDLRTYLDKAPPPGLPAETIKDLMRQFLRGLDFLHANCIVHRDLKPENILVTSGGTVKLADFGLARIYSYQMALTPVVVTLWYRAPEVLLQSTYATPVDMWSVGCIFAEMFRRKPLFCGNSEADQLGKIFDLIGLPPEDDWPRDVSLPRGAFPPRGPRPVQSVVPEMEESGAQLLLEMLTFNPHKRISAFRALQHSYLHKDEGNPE
T1 sequence (P24385 whole entry, chain 2 of 2): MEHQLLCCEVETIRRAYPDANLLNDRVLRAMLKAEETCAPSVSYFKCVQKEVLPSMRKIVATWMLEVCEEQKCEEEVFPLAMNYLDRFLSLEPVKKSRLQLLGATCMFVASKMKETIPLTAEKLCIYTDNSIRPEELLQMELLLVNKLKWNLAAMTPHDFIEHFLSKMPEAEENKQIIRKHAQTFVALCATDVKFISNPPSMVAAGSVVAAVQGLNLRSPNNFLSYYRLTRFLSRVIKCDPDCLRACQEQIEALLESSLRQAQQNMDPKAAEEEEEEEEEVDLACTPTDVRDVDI
Another assay has as its target cdc2/cyclin B complex (UniProt P06493 1-297). Description: cell-based or functional assay.
The target of assay [2] is T1, CDK4/cyclin D1 complex. Description: inhibition constant from in vitro kinase assay (Sf9 extract, Gst-Rb substrate).

Sequence of cdc2/cyclin B complex (P06493 whole entry, one chain of several): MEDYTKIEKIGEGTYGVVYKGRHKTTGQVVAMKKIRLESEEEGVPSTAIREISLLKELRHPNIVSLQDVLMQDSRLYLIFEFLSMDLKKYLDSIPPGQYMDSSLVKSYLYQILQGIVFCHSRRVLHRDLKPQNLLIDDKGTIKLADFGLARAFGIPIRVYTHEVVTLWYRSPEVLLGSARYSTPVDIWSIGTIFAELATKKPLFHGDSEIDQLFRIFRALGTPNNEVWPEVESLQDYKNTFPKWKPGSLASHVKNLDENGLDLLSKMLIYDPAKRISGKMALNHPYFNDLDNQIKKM

B1: p16 (other, human, UniProt P42771 1-156, looked up)
chain: MEPAAGSSMEPSADWLATAAARGRVEEVRALLEAGALPNAPNSYGRRPIQVMMMGSARVAELLLLHGAEPNCADPATLTRPVHDAAREGFLDTLVVLHRAGARLDVRDAWGRLPVDLAEELGHRDVARYLRAAAGGTRGSNHARIDAAEGPSDIPD
notes: also called p16^Ink4/MTS1; p16^INK4A
Take B1: the “IC50 of in vitro kinase assay (32P incorporation into Gst-Rb)” value with CDK2/cyclin A complex was over 500 nM; with CDK2/cyclin E complex, over 500 nM; with CDK4/cyclin D1 complex [1], 250 nM; with cdc2/cyclin B complex it was over 500 nM. The Ki with CDK4/cyclin D1 complex [2] came out at 75 nM.
